Consider two molecules from patent US6159731, “Daxx, a Fas-binding protein that activates JNK and apoptosis” (Massachusetts Institute of Technology, dated 2000).

Assay [1] addresses full length murine Fas expressed in cells (murine) (UniProt P25446).
The target in assay [2] is glutathione S-transferase (GST) (Schistosoma japonicum (Blood fluke), UniProt P08515 = GST). Description: GST pull-down of in vitro translated 35S-Daxx. The source says:
In the two-hybrid system, the Daxx C-terminal region interacted strongly with Fas, confirming that Daxx is the functional homolog of clone A21 (FIG. 1B). We then tested the binding of full length murine Daxx protein in vitro and in mammalian cells. In vitro translated, ^35S-labeled Daxx bound to immobilized glutathione S-transferase (GST) fusion proteins of Fas death domain and TNFR1 intracellular tail but not to immobilized GST or GST-CD40 intracellular tail or GST-Fas lpr^cg death domain (FIG. 3A). Positions of MW standards (in kDa) are shown at left. Coomassie stained GST fusion proteins from the same gel were aligned to show protein levels. Daxx migrated with an apparent molecular weight of approximately 120 kDa on SDS-PAGE; this slower than expected migration may reflect the high content of acidic residues in Daxx. In the GST pull-down assay, ^35S-Daxx bound to GST-FasDD but only very weakly to GST-TNFR1. This discrepancy with the two-hybrid result (FIG. 1) may be due to the nonlinear readout of the two-hybrid system. Deletion of 162 amino acids from the C-terminus of Daxx abrogated binding to GST-FasDD while the C-terminal 112 amino acids (DaxxC) was sufficient to bind GST-FasDD (FIG. 3B), consistent with the two-hybrid results. Daxx(-162) was missing C-terminal 162 aa of Daxx; DaxxC corresponded to aa 628-739. […]

As for “HA-Daxx (hemagglutinin-tagged full length murine Daxx)”, in assay [1], the specific apoptosis of L929 cells stably overexpressing Daxx (L/Daxx) after Fas transfection worked out at 3 fold.

B1: in vitro translated 35S-labeled full length murine Daxx (other)
chain: MATDDSIIVLDDDDEDEAAAQPGPSNLPPNPASTGPGPGLSQQATGLSEPRVDGGSSNSGSRKCYKLDNEKLFEEFLELCKTETSDHPEVVPFLHKLQQRAQSVFLASAEFCNILSRVLARSRKRPAKIYVYINELCTVLKAHSIKKKLNLAPAASTTSEASGPNPPTEPPSDLTNTENTASEASRTRGSRRQIQRLEQLLALYVAEIRRLQEKELDLSELDDPDSSYLQEARLKRKLIRLFGRLCELKDCSSLTGRVIEQRIPYRGTRYPEVNRRIERLINKPGLDTFPDYGDVLRAVEKAATRHSLGLPRQQLQLLAQDAFRDVGVRLQERRHLDLIYNFGCHLTDDYRPGVDPALSDPTLARRLRENRTLAMNRLDEVISKYAMMQDKTEEGERQKRRARLLGTAPQPSDPPQASSESGEGPSGMASQECPTTSKAETDDDDDDDDDDDEDNEESEEEEEEEEEEKEATEDEDEDLEQLQEDQGGDEEEEGGDNEGNESPTSPSDFFHRRNSEPAEGLRTPEGQQKRGLTETPASPPGASLDPPSTDAESSGEQLLEPLLGDESPVSQLAELEMEALPEERDISSPRKKSEDSLPTILENGAAVVTSTSVNGRVSSHTWRDASPPSKRFRKEKKQLGSGLLGNSYIKEPMAQQDSGQNTSVQPMPSPPLASVASVADSSTRVDSPSHELVTSSLCSPSPSLLLQTPQAQSLRQCIYKTSVATQCDPEEIIVLSDSD
modifications: 35S-labeled (in vitro translated)
On to B1, for which the binding result in assay [2] is listed as “no binding”.
